The source of these data is publication PMC4753561.

“And” between values parts separate entries of the source, which are not always exact repeats. Equal entries are not always repeated. Where two headings read alike, the source gives them in different places.

The target of assay [1] is Hepatitis B Virus core protein assembly domain (Cp149) dimer (Hepatitis B Virus). Put plainly: resistive-pulse sensing.
Assay [2] has the same target. Put plainly: resistive-pulse sensing. This is another data set of the same source.
Assay [3] has the same target. Put plainly: SEC. (Size exclusion chromatography separates by hydrodynamic size, large species first.)

In the case of “Hepatitis B Virus core protein assembly domain (Cp149) dimer (domain or fragment)”, the stoichiometry N is 90 subunit and 120 subunit in assay [1]; 105 dimers and 77 dimers in assay [2]. Further, the pseudo-critical dimer concentration in assay [2] and in assay [3] was 0.5 µM each time.

By stoichiometry N is commonly meant the number of molecules, sites or subunits per partner or assembly.
